Assay results as given in article PMC5660060.

B1: fragment d 36 bp TetR motif (dsDNA)
DNA 1: AATTCATTGCATGATGACTTCATCGCGCGATGAATT
DNA 2: AATTCATCGCGCGATGAAGTCATCATGCAATGAATT

What was measured:
[1] = biological target: T1, MSMEG_3765 (TetR3765) (Mycobacterium smegmatis mc2155) (UniProt A0QYS0); assay: EMSA; conditions: 40 mM HEPES pH 8.0, 150 mM NaCl, 20 mM MgCl2, 10% glycerol, 37 C, 20 min; 8% native PAGE, SYBR Safe
T1 sequence: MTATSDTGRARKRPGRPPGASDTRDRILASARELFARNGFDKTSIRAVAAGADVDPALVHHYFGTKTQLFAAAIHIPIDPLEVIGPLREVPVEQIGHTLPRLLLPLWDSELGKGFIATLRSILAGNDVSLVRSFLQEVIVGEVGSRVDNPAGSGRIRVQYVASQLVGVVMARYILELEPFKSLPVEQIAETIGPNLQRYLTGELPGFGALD

MSMEG_3765 (TetR3765) = biological target: T2, MSMEG_3765 (TetR3765) (Mycobacterium smegmatis mc2155, UniProt A0QYS0 1-211); assay: EMSA; 1.5-20 pmol protein; 40 mM HEPES pH 8.0, 150 mM NaCl, 20 mM MgCl2, 10% glycerol, 37 C, 20 min; 8% native PAGE, SYBR Safe; conditions: protein: recombinant; tags: C-terminal His (pET-22b(+), NdeI-XhoI); chain copies: 2
T2 sequence: T1 sequence

Row | Molecule | binding [1] | binding result (MSMEG_3765 (TetR3765))
1 | CCGGATCCGACCTCGACCACCATCGCACGCACACCCCGTCCGGCAATAGTTGCGCCGAGCAGCCGATGCGCGGCCGCGACCGGGTCGATCGCCAGTTCCTCAGCGTTCATCAGAGACGATTGTGCACCGGCCCTTGACAAACCCGCACGACTGGCGGATATTCATCACATGATGATTTCATCAAGTGATGAATTACTTCGCGACGGTGGGGCCCG (double strand) [Rv1687c upstream fragment 200 bp] | binds | –
2 | CGGGATCCGATCCTGCGGGGCGCCGACGACCACACGCTGTCGCTGATCACCGAGTACGTCGACGTCGCACGGTTGCGGGCCGACATTATCGGCCTGCTGGAGTCCGCCGCCTGAGCCAGGCGTCGCCGACGCCGAAATGTGTCGACGCATCGTCTTCCCACCGGACGACGGCAGGCCTAGAATTCATTGC (double strand) [fragment b 182 bp] | no binding | –
3 | CGGGATCCGATCCTGCGGGGCGCCGACGACCACACGCTGTCGCTGATCACCGAGTACGTCGACGTCGCACGGTTGCGGGCCGACATTATCGGCCTGCTGGAGTCCGCCGCCTGAGCCAGGCGTCGCCGACGCCGAAATGTGTCGACGCATCGTCTTCCCACCGGACGACGGCAGGCCTAGAATTCATTGCATGATGACTTCATCGCGCGATGAATTGTCAGCGACGGGGCCCG (double strand) [MSMEG_3762 upstream fragment 218 bp] | binds | –
4 | CGGGCCCGATCCACGCTGGCCATGGCATCGGTGGTCGGTTCGTCGCTCATGTCGTCAAGTTAGCTTGACGACATGAGCGGCGTCAAGAAAACTTGACACAAAAGGAACAGGCACAATCGCATCGATGAGCGTCGACCTGCTGACCGGTGATCCGATCGCCGCGGCACGTCGGCTGATCGGCGCCCACCTCGTCGGGCGGGACGTCACCGCCACGATCGTCGAGGTCGAGGCCTACGGCGGACCGCCGGACGGCCCGTGGCCGGACGCGGCGTCGCATTCGTTCCGGATCCCG (double strand) [MSMEG_3760 upstream fragment (from GFP assay) 277 bp] | no binding | –
5 | CTGCTGGAGTCCGCCGCCTGAGCCAGGCGTCGCCGACGCCGAAATGTGTCGACGCATCGTCTTCCCACCGGACGACGGCAGGCCTAGAATTCATTGC (double strand) [fragment c 97 bp] | no binding | –
6 | CTGCTGGAGTCCGCCGCCTGAGCCAGGCGTCGCCGACGCCGAAATGTGTCGACGCATCGTCTTCCCACCGGACGACGGCAGGCCTAGAATTCATTGCATGATGACTTCATCGCGCGATGAATTGTCAGCGACGGGGCCCG (double strand) [fragment a 133 bp] | binds | –
7 | GACGCTCATCGATGCGATTGTGCCTGTTCCTTTTGTGTCAAGTTTTCTTGACGCCGCTCATGTCGTCAAGCTAACTTGACGACATGAGCGACGAACCGACCACCGATGCCATGGCCAGCGTGGATCGGGCCCG (double strand) [MSMEG_3760 upstream fragment 127 bp (negative control)] | no binding | –
8 | B1 | – | binds
